Here are results for 6 variants from IntAct's records for PubMed 29039417.

The chains are these.
B1: BBSome complex member BBS4 (Homo sapiens), Q96RK4 (parent)
chain: MAEERVATRTQFPVSTESQKPRQKKAPEFPILEKQNWLIHLHYIRKDYEACKAVIKEQLQETQGLCEYAIYVQALIFRLEGNIQESLELFQTCAVLSPQSADNLKQVARSLFLLGKHKAAIEVYNEAAKLNQKDWEISHNLGVCYIYLKQFNKAQDQLHNALNLNRHDLTYIMLGKIHLLEGDLDKAIEVYKKAVEFSPENTELLTTLGLLYLQLGIYQKAFEHLGNALTYDPTNYKAILAAGSMMQTHGDFDVALTKYRVVACAVPESPPLWNNIGMCFFGKKKYVAAISCLKRANYLAPFDWKILYNLGLVHLTMQQYASAFHFLSAAINFQPKMGELYMLLAVALTNLEDIENAKRAYAEAVHLDKCNPLVNLNYAVLLYNQGEKKNALAQYQEMEKKVSLLKDNSSLEFDSEMVEMAQKLGAALQVGEALVWTKPVKDPKSKHQTTSTSKPASFQQPLGSNQALGQAMSSAAAYRTLPSGAGGTSQFTKPPSLPLEPEPAVESSPTETSEQIREK
partner: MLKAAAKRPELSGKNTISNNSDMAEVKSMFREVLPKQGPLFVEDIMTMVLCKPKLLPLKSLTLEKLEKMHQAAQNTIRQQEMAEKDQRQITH

Variants of B1 are the subject of this assay. The conditions noted are these: with bbip1_human BBIP1, A8MTZ0.
For MAEERVATRTQFPVSTESQKPRQKKAPEFPILEKQNWLIHLHYIRKDYEACKAVIKEQLQETQGLCEYAIYVQALIFRLEGNIQESLELFQTCAVLSPQSADNLKQVARSLFLLGKHKAAIEVYNEAAKLNQKDWEISHNLGVCYIYLKQFNKAQDQLHNALNLNRHDLTYIMLGKIHLLEGDLDKAIEVYKKAVEFSPENTELLTTLGLLYLQLGIYQKAFEHLGNALTYDPTNYKAILAAGSMMQTHGDFDVALTKYRVVACAVPESEPLWNNIGMCFFGKKKYVAAISCLKRANYLAPFDWKILYNLGLVHLTMQQYASAFHFLSAAINFQPKMGELYMLLAVALTNLEDIENAKRAYAEAVHLDKCNPLVNLNYAVLLYNQGEKKNALAQYQEMEKKVSLLKDNSSLEFDSEMVEMAQKLGAALQVGEALVWTKPVKDPKSKHQTTSTSKPASFQQPLGSNQALGQAMSSAAAYRTLPSGAGGTSQFTKPPSLPLEPEPAVESSPTETSEQIREK [P270E], the “effect of a mutation on the interaction” value is “with no effect”.

Regarding MAEERVATRTQFPVSTESQKPRQKKAPEFPILEKQNWLIHLHYIRKDYEACKAVIKEQLQETQGLCEYAIYVQALIFRLEGNIQESLELFQTCAVLSPQSADNLKQVARSLFLLGKHKAAIEVYNEAAKLNQKDWEISHNLGVCYIYLKQFNKAQDQLHNALNLNRHDLTYIMLGKIHLLEGDLDKAIEVYKKAVEFSPENTELLTTLGLLYLQLGIYQKAFEHLGNALTYDPTNYKAILAAGSMMQTHGDFDVALTKYRVVACAVPESKPLWNNIGMCFFGKKKYVAAISCLKRANYLAPFDWKILYNLGLVHLTMQQYASAFHFLSAAINFQPKMGELYMLLAVALTNLEDIENAKRAYAEAVHLDKCNPLVNLNYAVLLYNQGEKKNALAQYQEMEKKVSLLKDNSSLEFDSEMVEMAQKLGAALQVGEALVWTKPVKDPKSKHQTTSTSKPASFQQPLGSNQALGQAMSSAAAYRTLPSGAGGTSQFTKPPSLPLEPEPAVESSPTETSEQIREK [P270K], the “effect of a mutation on the interaction” value was “with no effect”.

For the variant MAEERVATRTQFPVSTESQKPRQKKAPEFPILEKQNWLIHLHYIRKDYEACKAVIKEQLQETQGLCEYAIYVQALIFRLEGNIQESLELFQTCAVLSPQSADNLKQVARSLFLLGKHKAAIEVYNEAAKLNQKDWEISHNLGVCYIYLKQFNKAQDQLHNALNLNRHDLTYIMLGKIHLLEGDLDKAIEVYKKAVEFSPENTELLTTLGLLYLQLGIYQKAFEHLGNALTYDPTNYKAILAAGSMMQTHGDFDVALTKYRVVACAVPESAPLWNNIGMCFFGKKKYVAAISCLKRANYLAPFDWKILYNLGLVHLTMQQYASAFHFLSAAINFQPKMGELYMLLAVALTNLEDIENAKRAYAEAVHLDKCNPLVNLNYAVLLYNQGEKKNALAQYQEMEKKVSLLKDNSSLEFDSEMVEMAQKLGAALQVGEALVWTKPVKDPKSKHQTTSTSKPASFQQPLGSNQALGQAMSSAAAYRTLPSGAGGTSQFTKPPSLPLEPEPAVESSPTETSEQIREK [P270A], the “effect of a mutation on the interaction” value is “with no effect”. Then MAEERVATRTQFPVSTESQKPRQKKAPEFPILEKQNWLIHLHYIRKDYEACKAVIKEQLQETQGLCEYAIYVQALIFRLEGNIQESLELFQTCAVLSPQSADNLKQVARSLFLLGKHKAAIEVYNEAAKLNQKDWEISHNLGVCYIYLKQFNKAQDQLHNALNLNRHDLTYIMLGKIHLLEGDLDKAIEVYKKAVEFSPENTELLTTLGLLYLQLGIYQKAFEHLGNALTYDPTNYKAILAAGSMMQTHGDFDVALTKYRVVACAVPESPPLENNIGMCFFGKKKYVAAISCLKRANYLAPFDWKILYNLGLVHLTMQQYASAFHFLSAAINFQPKMGELYMLLAVALTNLEDIENAKRAYAEAVHLDKCNPLVNLNYAVLLYNQGEKKNALAQYQEMEKKVSLLKDNSSLEFDSEMVEMAQKLGAALQVGEALVWTKPVKDPKSKHQTTSTSKPASFQQPLGSNQALGQAMSSAAAYRTLPSGAGGTSQFTKPPSLPLEPEPAVESSPTETSEQIREK [W273E], with “with no effect”; and MAEERVATRTQFPVSTESQKPRQKKAPEFPILEKQNWLIHLHYIRKDYEACKAVIKEQLQETQGLCEYAIYVQALIFRLEGNIQESLELFQTCAVLSPQSADNLKQVARSLFLLGKHKAAIEVYNEAAKLNQKDWEISHNLGVCYIYLKQFNKAQDQLHNALNLNRHDLTYIMLGKIHLLEGDLDKAIEVYKKAVEFSPENTELLTTLGLLYLQLGIYQKAFEHLGNALTYDPTNYKAILAAGSMMQTHGDFDVALTKYRVVACAVPESPPLANNIGMCFFGKKKYVAAISCLKRANYLAPFDWKILYNLGLVHLTMQQYASAFHFLSAAINFQPKMGELYMLLAVALTNLEDIENAKRAYAEAVHLDKCNPLVNLNYAVLLYNQGEKKNALAQYQEMEKKVSLLKDNSSLEFDSEMVEMAQKLGAALQVGEALVWTKPVKDPKSKHQTTSTSKPASFQQPLGSNQALGQAMSSAAAYRTLPSGAGGTSQFTKPPSLPLEPEPAVESSPTETSEQIREK [W273A], with “with no effect”; and MAEERVATRTQFPVSTESQKPRQKKAPEFPILEKQNWLIHLHYIRKDYEACKAVIKEQLQETQGLCEYAIYVQALIFRLEGNIQESLELFQTCAVLSPQSADNLKQVARSLFLLGKHKAAIEVYNEAAKLNQKDWEISHNLGVCYIYLKQFNKAQDQLHNALNLNRHDLTYIMLGKIHLLEGDLDKAIEVYKKAVEFSPENTELLTTLGLLYLQLGIYQKAFEHLGNALTYDPTNYKAILAAGSMMQTHGDFDVALTKYRVVACAVPESPALWNNIGMCFFGKKKYVAAISCLKRANYLAPFDWKILYNLGLVHLTMQQYASAFHFLSAAINFQPKMGELYMLLAVALTNLEDIENAKRAYAEAVHLDKCNPLVNLNYAVLLYNQGEKKNALAQYQEMEKKVSLLKDNSSLEFDSEMVEMAQKLGAALQVGEALVWTKPVKDPKSKHQTTSTSKPASFQQPLGSNQALGQAMSSAAAYRTLPSGAGGTSQFTKPPSLPLEPEPAVESSPTETSEQIREK [P271A], with “with no effect”.
